Laboratory results: publication PMC3574636

Target: microtubules (tubulin purified from bovine brain) (bovine) (UniProt Q6B856)
Assay: co-sedimentation

microtubules (tubulin purified from bovine brain) (bovine), sequence (Q6B856 whole entry, looked up): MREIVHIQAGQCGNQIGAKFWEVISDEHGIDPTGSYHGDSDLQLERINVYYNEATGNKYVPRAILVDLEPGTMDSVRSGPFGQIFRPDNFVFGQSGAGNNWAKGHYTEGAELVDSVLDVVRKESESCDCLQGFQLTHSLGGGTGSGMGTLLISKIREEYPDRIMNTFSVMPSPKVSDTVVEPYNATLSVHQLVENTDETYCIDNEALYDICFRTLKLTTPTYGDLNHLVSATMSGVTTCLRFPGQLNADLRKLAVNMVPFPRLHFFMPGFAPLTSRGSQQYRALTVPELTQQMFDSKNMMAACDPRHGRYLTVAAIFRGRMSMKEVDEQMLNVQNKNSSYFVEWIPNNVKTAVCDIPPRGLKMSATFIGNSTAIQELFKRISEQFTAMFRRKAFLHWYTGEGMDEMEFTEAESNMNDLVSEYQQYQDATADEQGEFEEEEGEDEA

native kinesin (kinesin-1, conventional kinesin) purified from bovine brain (complex)
active fraction by microtubule pulldown (no CK2): 20%
percent of motor bound to microtubules (after CK2, 3:1 kinase:motor): 80%
